Measured values from PMC6839005.

Columns and labels:
Test in all cases: SPR
[1] = biological target: Human IgG1κ isotype control (human)
[2] = biological target: Recombinant HIV-1 gp120 ZM53M.PB12 (HIV-1 ZM53M.PB12 (Clade C))
[3] = biological target: Recombinant HIV-1 gp120 SF162 (Clade B) (HIV-1 SF162 (Clade B))

Substance	Kd [1] [µM]	fold increase in affinity compared to AH [2] [fold]	fold increase in affinity compared to AH [3] [fold]
Neonatal Fc receptor (FcRn) (from UniProt P55899 24-365)	0.018		
AvFc (lectibody: Avaren fused to the Fc region of human IgG1) (from UniProt Q9KWN0 47-160) (Fc fusion)		10	10
Recombinant human Fc gamma receptor IIIA (FcγRIIIa, CD16) (from UniProt P08637 17-254)	0.68		
Recombinant human Fc gamma receptor IA (FcγRI, CD64) (from UniProt P12314 16-374)	0.00011		
